Data published in patent US7256256B1, “CDK4 binding peptide” (United States of America as represented by the Secretary, …, priority 1999, dated 2007).
Values belong to the molecule of their own block, whether it stands above or below them.

Key:
CDK4 [1] = biological target: T1, CDK4 (Mus musculus, UniProt P30285); assay: GST fusion pull-down binding assay with CDK4 from Sf9 cell extracts, anti-CDK4 immunoblot; design: made in house; host or cells: Sf9 insect cells, baculovirus; settings: GST fusion protein on glutathione agarose; CDK4 from baculovirus infected Sf9 cell extracts
T1 sequence (P30285 1-303): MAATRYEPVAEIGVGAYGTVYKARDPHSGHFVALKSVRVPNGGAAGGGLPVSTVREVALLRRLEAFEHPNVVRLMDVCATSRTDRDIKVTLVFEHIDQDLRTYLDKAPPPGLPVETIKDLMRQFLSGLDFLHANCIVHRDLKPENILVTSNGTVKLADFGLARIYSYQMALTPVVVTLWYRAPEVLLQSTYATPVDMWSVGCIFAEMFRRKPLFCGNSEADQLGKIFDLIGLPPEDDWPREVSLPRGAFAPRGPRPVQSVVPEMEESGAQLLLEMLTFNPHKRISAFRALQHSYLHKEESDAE
Method: The Sf9 cell extract was incubated with agarasoe bound with either glutathione transferase (GST) alone, or GST fusion proteins encoding one of the four different vertebrate myogenic factors from chicken: CMD1 (MyoD), Ch-myogenin, Ch-myf5 an Ch-mrf4 using methods known to those of skill in the art. Any GST complexes formed were recovered on glutathione-Sepharose beads. The recovered GST complexes were then washed, heated in sample buffer and loaded on an SDS-PAGE gel.
The gel was then analyzed by immunoblot with anti-CDK4 affinity purified rabbit polyclonal antibody on HyBond ECL (Amersham). The anti-CKD4 antibody was diluted 1:2,000–5,000. The second antibody was HRP anti-rabbit and was diluted 1:10,000 (Pierce cat. no. 31460). The signal was detected using SuperSignal Ultra Reagent (Pierce cat. no. 34075).
Proteins were expressed in E. coli strain BL21 (DE3) and purified as described by Shirakata et al., Genes Dev. 1993 7(12A):2456–70. The MyoD-GST fusion proteins were bound to glutathione agaraose.
The binding experiments were performed with CDK4 produced in the baculovirus system (Kato et al., Genes Dev. 1993 7(3):331–42) essentially as described by Kaelin et al., Cell 1991 64(3):521–32.
Deletion mapping of the MyoD (CMD1) carboxy terminus narrowed the CDK4-binding region to a maximum of fifteen amino acids between residues 189–203, well outside the bHLH domain (FIG. 10b, lanes 4 and 5). To confirm that these fifteen amino acids bound CDK4, the fifteen amino acid peptide was joined to glutathione transferase and tested for its ability to bind the CDK4 from Sf9 cell extracts.

C2C12 myoblasts = assay: RB phosphorylation and growth inhibition in cotransfected C2C12 myoblasts; assay type: cell-based, mouse
From the text: C2C12 myoblasts were cotransfected with a GST-pCEFL RB expression plasmid (RB aa 767–928) and pCDNA3 expression plasmids for full-sized or the C-terminus of MyoD(CMD1). GST-RB was recovered from the cells using methods known to those of skill in the art. The samples were adjusted for equal levels GST protein and loaded on SDS-PAGE gels for western analysis by phosphoserine 780 and 795-specific antibodies.

10T1/2 cells = assay: BrdU incorporation growth arrest assay in transfected 10T1/2 cells; assay type: cell-based, mouse; settings: for growth inhibitory activity (BrdU positive cells): 10T1/2 cells, 20% fetal calf serum, one hour BrdU pulse, domains with NLS in pCDNA3 or GST-pCEFL
Method: 10T1/2 cells in growth medium were cotransfected with plasmids expressing full-sized MyoD(CMD1) or the indicated domains, either as GST fusions in GST-pCEFL or as subclones in pCDNA3, along with a lacZ expression construct, pCH110, to mark transfected cells. The various domains were targeted to the nucleus with a nuclear tag in the absence of an existing NLS.
Cultures were maintained in 20% fetal calf serum. 72 hours after transfection cultures were refed with the same medium and 12 hours later they were given a one hour pulse with BrdU (10 μM) prior to fixation, as previously described by Crescenzi et al., PNAS USA 1990 87(21):8442–6; and Sorrentino et al., Nature, 1990 345(6278):813–5. Cells were then reacted with rabbit anti-BrdU antibody (Jackson labs) and Xgal.

CDK4 and cyclin D1 = biological target: T2, CDK4 and cyclin D1 (Mus musculus, UniProt P30285); assay: In vitro CDK4 kinase assay on GST-RB, Western blot with phosphoserine 780/795 antibodies; assay type: biochemical; settings: proteins added in two-fold increments from 75 ng to 300 ng; phosphoserine 780 antibody (identical with 795)
T2 construct: made in house; host or cells: Sf9 insect cells coinfected with baculovirus stocks (from C. J. Sherr)
T2 sequence (P25322 whole entry partner, one chain of several): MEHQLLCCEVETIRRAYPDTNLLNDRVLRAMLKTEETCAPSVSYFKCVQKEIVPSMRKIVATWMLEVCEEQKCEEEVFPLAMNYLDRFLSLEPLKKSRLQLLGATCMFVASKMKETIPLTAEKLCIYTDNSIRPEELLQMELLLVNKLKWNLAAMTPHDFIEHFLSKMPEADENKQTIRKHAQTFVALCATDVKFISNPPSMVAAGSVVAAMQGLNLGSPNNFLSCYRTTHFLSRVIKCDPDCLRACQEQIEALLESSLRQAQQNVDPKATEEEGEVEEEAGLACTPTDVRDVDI
Method: Active CDK4 was produced in Sf9 cells coinfected with baculovirus stocks encoding CDK4 and cyclin D1 (from C. J. Sherr).
The kinase assay was performed essentially as described by Kato, et al., Genes Dev, (1993), 7(3):331–42. The CDK4-specific kinase inhibitor p16 (from D. Beach, [as described in Serrano, et al., Nature, (1993), 366(6456): 704–7]) was used as a GST-p16 fusion added to the kinase reaction. The GST-RB fusion (767–928) was used as a kinase target as previously described Kato, et al., Genes Dev, (1993), 7(3):331–42.
To test for kinase inhibition, the various proteins and protein domains were added to the reaction in two-fold increments from 75 ng to 300 ng. […] For the GST constructs, total protein concentration was kept constant in the kinase reaction by adding GST protein. After the assay the total reaction was run on SDS PAGE gels and analyzed by Western blot analysis. Specific phosphorylation of RB was measured with rabbit polyclonal antibodies to RB phosphoserines 780 or 795 (New England Biolabs).

[2] = system: CDK4 target sites, serines 780 and 795 of RB; assay: Phosphorylation of cotransfected GST-RB target in 10T1/2 cells, Western blot; assay type: cell-based, mouse; settings: 48 hours after transfection, nuclear extracts
Method: The inhibitory activity of the fifteen amino acid CDK4 binding peptide on RB phosphorylation in cells was examined by fusing the fifteen amino acid CDK4-binding peptide of MyoD with a nuclear localization tag to the carboxy terminus of GFP and used in the same transfection protocol with GST-RB.
10T1/2 cells were cotransfected with a GST-RB target (amino acids 767–928) containing a nuclear localization tag, and either MyoD(CMD1) or the carboxy terminus of MyoD with an NLS.
48 hours after transfection, nuclear extracts of the 10T1/2 cells were prepared. The nuclear extracts were passed over glutathione agaraose to capture the GST-RB target.
Western blot analysis of the captured GST-RB target was performed with phosphoserine specific antibodies to the CDK4 target sites, serines 780 and 795. Gel loadings for the phosphoserine antibody analysis were adjusted to the same amount of GST-RB target protein by preliminary western analysis of the extracts (FIG. 13).

CDK4 [3] = biological target: T1, CDK4; assay: Mammalian two-hybrid luciferase reporter assay with vp16-CDK4 in 10T1/2 fibroblasts; assay type: cell-based; settings: average of three experiments
From the text: The interaction between MyoD and CDK4 in vivo was examined using a mammalian version of the yeast two hybrid system described by Finkel et al., (1993) J Biol Chem 268, 5–8.
MyoD and myogenin (MGN) were each cloned into the gal4 DNA-binding domain vector, pM. CDK4 was inserted into the vp16 activation domain plasmid, pVP16 using methods known to those of skill in the art.
10T1/2 fibroblasts (3×10^5 cells per 60 mm dish or multiwell plate) grown in DMEM with either 10% fetal calf serum were co-transfected with either gal4-MyoD or gal4-MGN along with vp16-CDK4 and a luciferase reporter using Fugene-6 (Boehringer-Mannheim) according to the manufacturer's directions. 1 μg gal4 luciferase reporter, 2 μg each of the gal4 (pM vector, Clonetech) and vp16 (pvp16 vector, Clonetech) constructs, and 300 ng of the beta galactosidase reporter pCH110 (Pharmacia), a total of 5.3 μg DNA, were used in each transfection. The pSV2-beta galactosidase reporter was used to normalize transfection efficiencies.
After 24–36 hours, if required, cells were placed in 2% horse serum plus insulin (10 μg/ml) to induce differentiation and destabilize cyclin D1. […]
24–48 hours after transfection, the luciferase reporter assay was performed according to the manufacturer's directions (Promega, cat. no. E4030) and measured in a Victor 1420 Multilabel Counter. […]

B1: C-terminus of MyoD(CMD1): amino acids 153–298 of CMD1 (protein, UniProt P16075 153-298, looked up, fragment)
chain: ALLREQEDAYYPVLEHYSGESDASSPRSNCSDGMMEYSGPPCSSRRRNSYDSSYYTESPNDPKHGKSSVVSSLDCLSSIVERISTDNSTCPILPPAEAVAEGSPCSPQEGGNLSDSGAQIPSPTNCTPLPQESSSSSSSNPIYQVL
binding to CDK4 (CDK4 [1]): CDK4 bound
phosphorylation of serines 780 and 795 on cotransfected RB target protein [2]: reduced the phosphorylation of serines 780 and 795
inhibition of CDK4-dependent phosphorylation of RB (GST-RB) in vitro (CDK4 and cyclin D1): inhibit

B3: bHLH domain of MyoD(CMD1): amino acids 93–153 of CMD1 (protein, UniProt P16075 93-153, looked up, fragment)
chain: KRKTTNADRRKAATMRERRRLSKVNEAFETLKRCTSTNPNQRLPKVEILRNAIRYIESLQA
growth inhibitory activity (BrdU positive cells) (10T1/2 cells): effective at inhibiting cell growth
inhibition of CDK4-dependent phosphorylation of RB (GST-RB) in vitro (CDK4 and cyclin D1): neither the N-terminus (amino acids 1–92) nor the bHLH domain of MyoD(CMD1) inhibited CDK4 activity

B4: Myogenin: chicken myogenic factor that does not bind CDK4, used as the control (protein, UniProt P17920 1-227, looked up)
Myogenin: MELFETNPYFFPEQRFYDGENFLGSRLQGYEAAAFPERPEVTLCPESRGALEEKDSTLPEHCPGQCLPWACKICKRKTVSIDRRRAATLREKRRLKKVNEAFEALKRSTLLNPNQRLPKVEILRSAIQYIERLQSLLSSLNQQEREQRELRYRPAAPQPAAPSECGSGSSSCSPEWSTQLEFGTNPADHLLSDDQAEDRNLHSLSSIVESIAVEDVAVTFPEERVQN
modifications: gal4 fusion
binding to CDK4 (CDK4 [1]): does not bind to CDK4
inhibition of CDK4-dependent phosphorylation of RB (GST-RB) in vitro (CDK4 and cyclin D1): no inhibitory effect

B5: N-terminus (amino acids 1–92): amino acids 1–92 of CMD1 (protein, UniProt P16075 1-92, looked up, fragment)
chain: MDLLGPMEMTEGSLCSFTAADDFYDDPCFNTSDMHFFEDLDPRLVHVGGLLKPEEHPHTRAPPREPTEEEHVRAPSGHHQAGRCLLWACKAC
growth inhibitory activity (BrdU positive cells) (10T1/2 cells): ineffective in growth inhibition
inhibition of CDK4-dependent phosphorylation of RB (GST-RB) in vitro (CDK4 and cyclin D1): neither the N-terminus (amino acids 1–92) nor the bHLH domain of MyoD(CMD1) inhibited CDK4 activity

Now from value to molecule, other results behind:

inhibition of CDK4-dependent phosphorylation of RB (GST-RB) in vitro (CDK4 and cyclin D1): inhibit
Molecule: fifteen amino acid CDK4-binding peptide: amino acids 189–203 of chicken MyoD (CMD1), SEQ ID NO: 1; tested as GST fusion, with NLS in cells
binding to CDK4 (CDK4 [1]): bound CDK4 as efficiently as full-sized MyoD (CMD1)
CDK4 kinase activity and cell growth when expressed in cell nuclei (C2C12 myoblasts): inhibits CDK4 kinase activity and cell growth
growth inhibitory activity (BrdU positive cells) (10T1/2 cells): as potent as full-sized MyoD(CMD1) in growth inhibitory activity
growth inhibitory effect when the peptide further includes nuclear localization signal (NLS) (10T1/2 cells; data not shown): enhanced

binding to CDK4 (CDK4 [1]): binds specifically
vp16 CDK4-dependent luciferase reporter activity (CDK4 [3]): four-fold increase
inhibition of CDK4-dependent phosphorylation of RB (GST-RB) in vitro (CDK4 and cyclin D1): inhibit
B2: full-length MyoD(CMD1): full-sized chicken MyoD (CMD1), muscle specific bHLH transcription factor; used as GST, his-tag or gal4 constructs (protein, UniProt P16075 1-298, looked up)
chain: MDLLGPMEMTEGSLCSFTAADDFYDDPCFNTSDMHFFEDLDPRLVHVGGLLKPEEHPHTRAPPREPTEEEHVRAPSGHHQAGRCLLWACKACKRKTTNADRRKAATMRERRRLSKVNEAFETLKRCTSTNPNQRLPKVEILRNAIRYIESLQALLREQEDAYYPVLEHYSGESDASSPRSNCSDGMMEYSGPPCSSRRRNSYDSSYYTESPNDPKHGKSSVVSSLDCLSSIVERISTDNSTCPILPPAEAVAEGSPCSPQEGGNLSDSGAQIPSPTNCTPLPQESSSSSSSNPIYQVL
modifications: full-length GST, His or gal4 tagged
notes: full-sized chicken MyoD (CMD1), muscle specific bHLH transcription factor; used as GST, his-tag or gal4 constructs
phosphorylation of serines 780 and 795 on cotransfected RB target protein [2]: reduced the phosphorylation of serines 780 and 795
growth inhibitory activity (BrdU positive cells) (10T1/2 cells): showed growth inhibitory activity
